The source of these data is patent US20260217814 (published 2026).

The target of one assay is human TNFa (human). In words: SPR. Background: In SPR one partner is held on a chip, and binding of the other changes the refractive index at the surface.
For assay [1], the target named is T1, human IL-17A (human).
T1 chain: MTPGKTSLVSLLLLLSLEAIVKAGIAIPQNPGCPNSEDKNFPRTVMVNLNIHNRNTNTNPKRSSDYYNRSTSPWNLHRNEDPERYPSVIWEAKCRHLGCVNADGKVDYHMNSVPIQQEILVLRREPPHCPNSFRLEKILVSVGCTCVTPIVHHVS
In words: SPR, direct setup.

The next assay concerns the target T2, IL-17E (human).
T2 chain: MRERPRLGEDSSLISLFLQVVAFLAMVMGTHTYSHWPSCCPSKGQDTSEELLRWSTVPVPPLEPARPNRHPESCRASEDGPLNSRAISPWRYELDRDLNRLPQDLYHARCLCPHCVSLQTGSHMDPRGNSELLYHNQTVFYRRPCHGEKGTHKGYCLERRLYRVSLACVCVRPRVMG
Kind of assay: competition ELISA. In general terms: In an ELISA, binding on a coated surface is turned into a signal by an enzyme label.

In another assay the target is T3, IL-17C (human).
T3 chain: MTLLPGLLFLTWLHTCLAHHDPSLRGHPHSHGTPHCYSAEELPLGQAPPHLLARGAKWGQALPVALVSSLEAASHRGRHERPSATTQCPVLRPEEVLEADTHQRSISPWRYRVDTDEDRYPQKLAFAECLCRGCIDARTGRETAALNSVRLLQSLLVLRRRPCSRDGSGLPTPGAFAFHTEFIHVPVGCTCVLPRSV
Kind of assay: competition ELISA.

Assay [2] deals with T1, human IL-17A. In words: SPR, capture setup.
The next assay has as its target T4, IL-17D (human).
T4 chain: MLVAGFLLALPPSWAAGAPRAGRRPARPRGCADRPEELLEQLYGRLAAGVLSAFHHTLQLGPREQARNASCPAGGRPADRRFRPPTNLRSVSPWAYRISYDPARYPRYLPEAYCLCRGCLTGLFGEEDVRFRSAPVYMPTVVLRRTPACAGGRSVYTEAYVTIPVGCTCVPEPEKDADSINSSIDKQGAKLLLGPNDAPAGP
In words: competition.

In a further assay the target is T5, IL-17B (human).
T5 chain: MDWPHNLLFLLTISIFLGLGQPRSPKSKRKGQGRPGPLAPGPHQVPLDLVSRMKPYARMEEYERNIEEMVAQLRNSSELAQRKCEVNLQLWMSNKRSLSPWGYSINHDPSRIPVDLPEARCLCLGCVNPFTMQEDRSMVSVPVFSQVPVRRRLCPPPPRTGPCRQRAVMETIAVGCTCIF
In words: competition ELISA.

The target of the next assay is T6, IL-17F (human).
T6 chain: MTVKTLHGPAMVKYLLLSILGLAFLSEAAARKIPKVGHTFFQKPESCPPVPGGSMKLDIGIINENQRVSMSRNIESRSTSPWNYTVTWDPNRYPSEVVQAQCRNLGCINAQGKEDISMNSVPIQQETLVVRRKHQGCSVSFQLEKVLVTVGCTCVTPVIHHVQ
Kind of assay: competition ELISA.

B1: A4 TNFa arm (antibody)
chain 1: EVQLVESGGGLVQPGGSLRLSCAASGFSFSSDYWMCWVRQAPGKGLEWIGCIYAGDVDDTDYASWARGRFTISRDNSKNTVYLQMNSLRAEDTAVYYCARVDGFDITYFDLWGQGTLVTVSSASTKGPSVFPLAPSSKSTSGGTAALGCLVKDYFPEPVTVSWNSGALTSGVHTFPAVLQSSGLYSLSSVVTVPSSSLGTQTYICNVNHKPSNTKVDKKVEPKSCGGGGSGGGGSDIQMTQSPSSLSASVGDRVTITCQSSESVYSNNQLSWYQQKPGQPPKLLIYDASDLASGVPSRFSGSGSGTDFTLTISSLQPEDFATYYCAGGFSSSSDTAFGGGTKLTVLGGGGGSGGGGSGGGGSGGGGSEVQLVESGGGLVQPGGSLRLSCAASGFSLSSNAMGWVRQAPGKGLEYIGIISVGGFTYYASWAKGRFTISRDNSKNTVYLQMNSLRAEDTATYFCARDRHGGDSSGAFYLWGQGTLVTVSS
chain 2: DIQMTQSPSSLSASVGDRVTITCQASQTINYWLAWYQQKPGKAPKLLIYRASTLASGVPSRFSGSGSGTDFTLTISSLQPEDFATYYCQNYYYSTSRSYGFGGGTKLTVLGRTRTVAAPSVFIFPPSDEQLKSGTASVVCLLNNFYPREAKVQWKVDNALQSGNSQESVTEQDSKDSTYSLSSTLTLSKADYEKHKVYACEVTHQGLSSPVTKSFNRGECGGGGSGGGGSDIQMTQSPSSLSASVGDRVTINCQASESISSWLAWYQQKPGKRPKLLIYKASTLASGVPSRFSGSGSGTDYTLTISSLQPEDFATYYCQGYYLDSSVDDNVFGGGTKLTVLGGGGGSGGGGSGGGGSGGGGSEVQLVESGGGLVQPGGSLRLSCAASGIDFSTYGISWVRQAPGKGLEWIAYIYPDYGITDYASWVNGRFTISLDNAQNTVYLQMNSLRAEDTAVYYCARSGSYYSRGWGAHYFNLWGQGTLVTVSS
Regarding B1, the Kd in the assay with human TNFa is 0.257 nM.

B2: PRO592 (27-31-C04-sc02) (antibody)
chain: DIQMTQSPSSLSASVGDRVTITCQASESIYRYLSWYQQKPGKAPKLLIYLASTLTSGVPSRFSGSGSGTDFTLTISSLQPEDFATYYCQSNFGTASTTYYNTFGGGTKLTVLGGGGGSGGGGSGGGGSGGGGSEVQLVESGGGLVQPGGSLTLSCAASGFSFSGFYYMCWVRQAPGKGLEWIGCIDTGDGTTYYASWAKGRFTISRDNSKNTVYLQMNSLRAEDTAVYYCARDAAYGGYAYPAHGMDLWGPGTLVTVSS
Consider B2, for which the Kd was 0.038 nM in the assay with human IL-17A [1] and 0.37 nM with human IL-17A [2]. Besides, the binding result in the assay with IL-17E, with IL-17C, in the assay with IL-17D, with IL-17B and with IL-17F was “no binding” each time.

B3: A3 TNFa arm (antibody)
chain 1: EVQLVESGGGLVQPGGSLRLSCAASGFSLSSNAMGWVRQAPGKGLEYIGIISVGGFTYYASWAKGRFTISRDNSKNTVYLQMNSLRAEDTATYFCARDRHGGDSSGAFYLWGQGTLVTVSSASTKGPSVFPLAPSSKSTSGGTAALGCLVKDYFPEPVTVSWNSGALTSGVHTFPAVLQSSGLYSLSSVVTVPSSSLGTQTYICNVNHKPSNTKVDKKVEPKSCGGGGSGGGGSDIQMTQSPSSLSASVGDRVTITCQASQTINYWLAWYQQKPGKAPKLLIYRASTLASGVPSRFSGSGSGTDFTLTISSLQPEDFATYYCQNYYYSTSRSYGFGGGTKLTVLGGGGGSGGGGSGGGGSGGGGSEVQLVESGGGLVQPGGSLRLSCAASGFSFSSDYWMCWVRQAPGKGLEWIGCIYAGDVDDTDYASWARGRFTISRDNSKNTVYLQMNSLRAEDTAVYYCARVDGFDITYFDLWGQGTLVTVSS
chain 2: DIQMTQSPSSLSASVGDRVTITCQSSESVYSNNQLSWYQQKPGQPPKLLIYDASDLASGVPSRFSGSGSGTDFTLTISSLQPEDFATYYCAGGFSSSSDTAFGGGTKLTVLGRTRTVAAPSVFIFPPSDEQLKSGTASVVCLLNNFYPREAKVQWKVDNALQSGNSQESVTEQDSKDSTYSLSSTLTLSKADYEKHKVYACEVTHQGLSSPVTKSFNRGECGGGGSGGGGSDIQMTQSPSSLSASVGDRVTINCQASESISSWLAWYQQKPGKRPKLLIYKASTLASGVPSRFSGSGSGTDYTLTISSLQPEDFATYYCQGYYLDSSVDDNVFGGGTKLTVLGGGGGSGGGGSGGGGSGGGGSEVQLVESGGGLVQPGGSLRLSCAASGIDFSTYGISWVRQAPGKGLEWIAYIYPDYGITDYASWVNGRFTISLDNAQNTVYLQMNSLRAEDTAVYYCARSGSYYSRGWGAHYFNLWGQGTLVTVSS
On to B3, for which the Kd with human TNFa is < 0.0232 nM.

B4: A2 (27-07-G02-sc02) (antibody)
chain: DIQMTQSPSSLSASVGDRVTITCQASQTINYWLAWYQQKPGKPPKLLIYRASTLASGVPSRFSGSGSGTDFTLTISSLQPEDFATYYCQNYYYSTSRSYGFGGGTKLTVLGGGGGSGGGGSGGGGSGGGGSEVQLVESGGGLVKPEGSLRLSCAASGFSFSSDYWMCWVRQAPGKGLEWIACIYAGDVDDTDYASWARGRFTISRDNSKNTVYLQMNSLRAEDTAVYYCARVDGFDITYFDLWGQGTLVTVSS
Consider B4, for which the equilibrium dissociation constant (Kd) is 0.055 nM in the assay with human IL-17A [1] and 3 nM in the assay with human IL-17A [2]. Further, the binding result with IL-17E, with IL-17C, with IL-17D, with IL-17B and in the assay with IL-17F was “no binding” throughout.

B5: A5 TNFa arm (antibody)
chain 1: EVQLVESGGGLVQPGGSLRLSCAASGIDFSTYGISWVRQAPGKGLEWIAYIYPDYGITDYASWVNGRFTISLDNAQNTVYLQMNSLRAEDTAVYYCARSGSYYSRGWGAHYFNLWGQGTLVTVSSASTKGPSVFPLAPSSKSTSGGTAALGCLVKDYFPEPVTVSWNSGALTSGVHTFPAVLQSSGLYSLSSVVTVPSSSLGTQTYICNVNHKPSNTKVDKKVEPKSCGGGGSGGGGSDIQMTQSPSSLSASVGDRVTITCQASQTINYWLAWYQQKPGKAPKLLIYRASTLASGVPSRFSGSGSGTDFTLTISSLQPEDFATYYCQNYYYSTSRSYGFGGGTKLTVLGGGGGSGGGGSGGGGSGGGGSEVQLVESGGGLVQPGGSLRLSCAASGFSFSSDYWMCWVRQAPGKGLEWIGCIYAGDVDDTDYASWARGRFTISRDNSKNTVYLQMNSLRAEDTAVYYCARVDGFDITYFDLWGQGTLVTVSS
chain 2: DIQMTQSPSSLSASVGDRVTINCQASESISSWLAWYQQKPGKRPKLLIYKASTLASGVPSRFSGSGSGTDYTLTISSLQPEDFATYYCQGYYLDSSVDDNVFGGGTKLTVLGRTRTVAAPSVFIFPPSDEQLKSGTASVVCLLNNFYPREAKVQWKVDNALQSGNSQESVTEQDSKDSTYSLSSTLTLSKADYEKHKVYACEVTHQGLSSPVTKSFNRGECGGGGSGGGGSDIQMTQSPSSLSASVGDRVTITCQSSESVYSNNQLSWYQQKPGQPPKLLIYDASDLASGVPSRFSGSGSGTDFTLTISSLQPEDFATYYCAGGFSSSSDTAFGGGTKLTVLGGGGGSGGGGSGGGGSGGGGSEVQLVESGGGLVQPGGSLRLSCAASGFSLSSNAMGWVRQAPGKGLEYIGIISVGGFTYYASWAKGRFTISRDNSKNTVYLQMNSLRAEDTATYFCARDRHGGDSSGAFYLWGQGTLVTVSS
B5 returned a Kd with human TNFa of 0.1 nM.

One may read the Kd as the equilibrium constant for the complex coming apart. A low value points to higher affinity.
